Measured values taken from patent US20150197564A1 (Regeneron, published 2015).

Tests used:
Test in all cases: SPR Biacore, antigen captured, 25C, pH 7.4, HBS-EP
hANGPTL3(17-460)-His = biological target: T1, hANGPTL3(17-460)-His (human, UniProt Q9Y5C1 17-460)
T1 construct: Bought protein (R&D Systems); also called full-length mature human ANGPTL3 with a C-terminal decahistidine tag; Human ANGPTL3 (17-460)-His
T1 sequence: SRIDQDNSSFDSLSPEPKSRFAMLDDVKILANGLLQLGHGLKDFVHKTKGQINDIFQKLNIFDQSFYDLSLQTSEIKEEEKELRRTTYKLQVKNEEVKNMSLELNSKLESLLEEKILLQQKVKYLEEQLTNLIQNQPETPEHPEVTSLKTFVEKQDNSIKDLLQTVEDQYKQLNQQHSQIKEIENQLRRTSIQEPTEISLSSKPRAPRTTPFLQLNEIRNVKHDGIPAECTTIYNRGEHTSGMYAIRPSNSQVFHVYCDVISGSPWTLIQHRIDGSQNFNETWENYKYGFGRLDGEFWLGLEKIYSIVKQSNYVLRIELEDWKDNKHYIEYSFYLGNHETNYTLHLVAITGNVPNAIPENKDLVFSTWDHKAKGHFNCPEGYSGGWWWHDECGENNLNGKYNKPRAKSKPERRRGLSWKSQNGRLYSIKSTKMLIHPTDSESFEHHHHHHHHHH
Experimental: (§1) All kinetic binding experiments were performed at 25° C. or 37° C. on a BIACORE™ T200 label-free molecular interaction instrument (GE Healthcare) using a CM5 sensor chip. Briefly, an antigen capture surface was generated by covalently coupling either an anti-mouse IgG-specific antibody (anti-mFc; GE Healthcare; catalog #BR-1008-38) or an anti-pentahistidine-specific antibody (Qiagen; catalog #34660) to the surface of a CM5 sensor chip using a standard amine coupling method.

hANGPTL3(17-170)-His = biological target: T2, hANGPTL3(17-170)-His (human, UniProt Q9Y5C1 17-170)
T2 construct: also called N-terminal coiled-coil domain of hANGPTL3 with a C-terminal hexahistidine tag; Human ANGPTL3 (17-170)-His
T2 sequence: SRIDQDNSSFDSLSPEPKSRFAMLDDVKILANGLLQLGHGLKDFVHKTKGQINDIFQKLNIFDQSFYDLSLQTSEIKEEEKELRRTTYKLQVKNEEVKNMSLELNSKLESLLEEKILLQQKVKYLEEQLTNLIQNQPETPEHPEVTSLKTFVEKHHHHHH
Experimental: as §1

MfANGPTL3(17-170)-mmH = biological target: T3, MfANGPTL3(17-170)-mmH (Macaca fascicularis)
T3 construct: also called N-terminal coiled-coil domain of ANGPTL3 from Macaca fascicularis with myc-myc-hexahistidine tag; Monkey ANGPTL3 (17-170)-mmH
T3 chain: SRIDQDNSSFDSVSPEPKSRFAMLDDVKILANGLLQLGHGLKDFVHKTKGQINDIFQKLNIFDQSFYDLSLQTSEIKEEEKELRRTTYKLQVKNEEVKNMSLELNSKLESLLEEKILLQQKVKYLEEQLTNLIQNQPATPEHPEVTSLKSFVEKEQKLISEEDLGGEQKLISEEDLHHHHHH
Experimental: as §1

mANGPTL3(17-455)-His = biological target: T4, mANGPTL3(17-455)-His (Mus musculus, UniProt Q9R182 17-455)
T4 construct: Bought protein (R&D Systems); also called full-length mature ANGPTL3 from Mus musculus with a C-terminal decahistidine tag
T4 sequence: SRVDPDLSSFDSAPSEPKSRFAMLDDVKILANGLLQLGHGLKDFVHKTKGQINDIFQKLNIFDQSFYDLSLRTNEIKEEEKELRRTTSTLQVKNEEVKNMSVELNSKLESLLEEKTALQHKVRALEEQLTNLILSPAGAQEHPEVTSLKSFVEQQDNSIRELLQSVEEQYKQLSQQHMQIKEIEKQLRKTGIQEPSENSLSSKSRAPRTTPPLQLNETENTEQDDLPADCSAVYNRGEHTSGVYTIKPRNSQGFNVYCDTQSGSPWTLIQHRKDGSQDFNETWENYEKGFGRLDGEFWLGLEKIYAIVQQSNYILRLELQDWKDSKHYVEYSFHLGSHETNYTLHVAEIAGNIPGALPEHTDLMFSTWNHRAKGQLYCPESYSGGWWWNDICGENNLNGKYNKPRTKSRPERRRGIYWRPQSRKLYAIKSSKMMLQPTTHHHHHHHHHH
Experimental: as §1

mANGPTL3(17-240)-His = biological target: T5, mANGPTL3(17-240)-His (Mus musculus, UniProt Q9R182 17-240)
T5 construct: also called N-terminal coiled-coil domain of ANGPTL3 from Mus musculus with a hexahistidine tag; Mouse ANGPTL3 (17-240)-His
T5 sequence: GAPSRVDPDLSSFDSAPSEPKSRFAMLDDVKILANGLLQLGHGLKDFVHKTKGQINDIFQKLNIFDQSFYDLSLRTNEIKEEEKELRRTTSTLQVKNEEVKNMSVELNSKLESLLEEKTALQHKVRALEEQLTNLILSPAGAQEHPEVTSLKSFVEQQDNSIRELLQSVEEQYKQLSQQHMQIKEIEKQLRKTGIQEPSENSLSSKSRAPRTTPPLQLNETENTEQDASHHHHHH
Experimental: as §1

rANGPTL3(17-240)-mmH = biological target: T6, rANGPTL3(17-240)-mmH (Rattus norvegicus)
T6 construct: also called N-terminal coiled-coil domain of ANGPTL3 from Rattus norvegicus with myc-myc-hexahistidine tag
T6 chain: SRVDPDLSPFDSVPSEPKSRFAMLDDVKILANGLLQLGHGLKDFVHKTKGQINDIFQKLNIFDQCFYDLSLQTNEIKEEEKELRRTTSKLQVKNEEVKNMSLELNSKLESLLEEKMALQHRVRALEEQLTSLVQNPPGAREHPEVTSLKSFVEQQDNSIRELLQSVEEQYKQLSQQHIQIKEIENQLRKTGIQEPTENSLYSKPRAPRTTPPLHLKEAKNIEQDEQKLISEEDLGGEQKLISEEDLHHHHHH
Experimental: as §1

B1: H4H1276S (antibody, IgG4, V domains shown)
VH: EVQLVESGGGVIQPGGSLRLSCAASGFTFDDYAMNWVRQGPGKGLEWVSAISGDGGSTYYADSVKGRFTISRDNSKNSLYLQMNSLRAEDTAFFYCAKDLRNTIFGVVIPDAFDIWGQGTMVTVSS
VL: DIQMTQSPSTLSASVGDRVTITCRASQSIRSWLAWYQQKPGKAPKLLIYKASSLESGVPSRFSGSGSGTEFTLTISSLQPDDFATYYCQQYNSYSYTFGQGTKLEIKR
Kd (hANGPTL3(17-460)-His): 0.491 nM | koff (hANGPTL3(17-460)-His): 0.000289 s⁻¹ | kon (hANGPTL3(17-460)-His): 588000 M⁻¹ s⁻¹ | t1/2 (hANGPTL3(17-460)-His): 40 min | Kd (hANGPTL3(17-170)-His): 0.938 nM | koff (hANGPTL3(17-170)-His): 0.000912 s⁻¹ | kon (hANGPTL3(17-170)-His): 973000 M⁻¹ s⁻¹ | t1/2 (hANGPTL3(17-170)-His): 12.7 min | Kd (MfANGPTL3(17-170)-mmH): 0.396 nM | koff (MfANGPTL3(17-170)-mmH): 0.000535 s⁻¹ | kon (MfANGPTL3(17-170)-mmH): 1.35e+06 M⁻¹ s⁻¹ | t1/2 (MfANGPTL3(17-170)-mmH): 21.6 min | Kd (mANGPTL3(17-455)-His): 0.268 nM | koff (mANGPTL3(17-455)-His): 0.000346 s⁻¹ | kon (mANGPTL3(17-455)-His): 1.29e+06 M⁻¹ s⁻¹ | t1/2 (mANGPTL3(17-455)-His): 33.4 min | Kd (mANGPTL3(17-240)-His): 0.458 nM | koff (mANGPTL3(17-240)-His): 0.000307 s⁻¹ | kon (mANGPTL3(17-240)-His): 670000 M⁻¹ s⁻¹ | t1/2 (mANGPTL3(17-240)-His): 37.6 min | Kd (rANGPTL3(17-240)-mmH): 0.53 nM | koff (rANGPTL3(17-240)-mmH): 0.000718 s⁻¹ | kon (rANGPTL3(17-240)-mmH): 1.35e+06 M⁻¹ s⁻¹ | t1/2 (rANGPTL3(17-240)-mmH): 16.1 min
